Results on six substances are retold here after publication PMC4419512.

Experiment [1] deals with monomeric, glycosylated, baculovirus-produced HIV-1 IIIB gp120 (HIV-1 (IIIB)). Briefly: ITC; lectin (180 μM) in the syringe, gp120 (2.5 μM) in the cell; 55 injections of 5 μl, 600 s spacing, 300 rpm, 30°C; VP-ITC. (In ITC the heat of successive injections is recorded.)
The target in experiment [2] is HIV-1 RF envelope glycoprotein (Env) on virus (HIV-1 (RF)) (UniProt P04579).
The target in experiment [3] is HIV-1 subtype A Q168.a2 envelope (Env) on pseudovirus (HIV-1 subtype A).
Experiment [4] deals with HIV-1 subtype B PVO.4 envelope (Env) on pseudovirus (HIV-1 subtype B).
The target in experiment [5] is HIV-1 subtype C DU151.2 envelope (Env) on pseudovirus (HIV-1 subtype C).
Experiment [6] addresses HIV-1 subtype B JR-FL envelope (Env) on pseudovirus (HIV-1 subtype B) (UniProt Q75760).
Experiment [7] deals with HIV-1 subtype A Q23.7 envelope (Env) on pseudovirus (HIV-1 subtype A).
For experiment [8], the target named is HIV-1 subtype B CAAN5342.A2 envelope (Env) on pseudovirus (HIV-1 subtype B).
Experiment [9] addresses HIV-1 subtype C Du179.14 envelope (Env) on pseudovirus (HIV-1 subtype C).
In experiment [10] the target is HIV-1 subtype B QH0692.42 envelope (Env) on pseudovirus (HIV-1 subtype B).
Experiment [11] has as its target HIV-1 subtype C CAP206.8 envelope (Env) on pseudovirus (HIV-1 subtype C).
For experiment [12], the target named is HIV-1 subtype C COT6.15 envelope (Env) on pseudovirus (HIV-1 subtype C).
The target in experiment [13] is HIV-1 subtype C Du156.12 envelope (Env) on pseudovirus (HIV-1 subtype C).

As a reminder, the Kd is the constant that tells how readily two partners part at equilibrium. Read a low Kd as tighter binding. In [1], “2mGRFT, tandem repeat of two mGRFT (1GS-S) domains joined by a Gly-Thr-Gly linker (designed binder)” came in with a Kd of 5 nM. This substance registered a dH in experiment [1] of -69.6 kcal/mol. Besides, the Anti-HIV EC50: concentration at which 50% of CEM-SS cells are protected from the cytopathic effects of HIV-1RF infection (XTT assay) in experiment [2] came out at 0.0027 nM. Further, the IC50 of neutralisation, single cycle Tzm-bl pseudovirus assay in [3] turned out to be 1.55 nM; in experiment [4], 0.301 nM; in experiment [5], 0.694 nM; in experiment [6], 2.09 nM; in [7], 7.26 nM; in experiment [8] it was 5.27 nM. In addition, the IC50 of neutralisation, single cycle Tzm-bl pseudovirus assay in experiment [9] is 0.158 nM; in experiment [10] it was 0.202 nM; in [11] it was 0.178 nM; in [12] it was 1.46 nM; in [13], 0.0182 nM.

“2mGRFT3, tandem repeat of two mGRFT (1GS-S) domains joined by a (Gly-Thr-Gly)3 linker (designed binder)”: the Kd in experiment [1] was determined as 3 nM. The substance further came in with a dH in [1] of -47.2 kcal/mol. The substance also had an Anti-HIV EC50: concentration at which 50% of CEM-SS cells are protected from the cytopathic effects of HIV-1RF infection (XTT assay) in experiment [2] of 0.0026 nM. The IC50 of neutralisation, single cycle Tzm-bl pseudovirus assay in [3] was 5.28 nM; in [4] it was 0.558 nM; in experiment [5], 1.7 nM; in experiment [6], 5.77 nM; in experiment [7], 7.16 nM; in experiment [8] it was 16.9 nM. Moreover, the IC50 of neutralisation, single cycle Tzm-bl pseudovirus assay in experiment [9] was 0.144 nM; in experiment [10], 0.513 nM; in experiment [11] it was 0.696 nM; in experiment [12], 2.54 nM; in [13], 0.0616 nM.

In the case of “griffithsin (GRFT), native domain-swapped homodimer (from UniProt P84801 1-121) (natural protein)”, the Kd in experiment [1] is 8 nM. In experiment [1], this substance came in with a dH of -30.4 kcal/mol. This substance also had an Anti-HIV EC50: concentration at which 50% of CEM-SS cells are protected from the cytopathic effects of HIV-1RF infection (XTT assay) in experiment [2] of 0.0138 nM. The IC50 of neutralisation, single cycle Tzm-bl pseudovirus assay in [3] was found to be 3.8 nM; in experiment [4], 0.037 nM; in experiment [5], 1.49 nM; in experiment [6] it was 0.922 nM; in experiment [7], 1.19 nM; in [8] it was 7.34 nM. In addition, the IC50 of neutralisation, single cycle Tzm-bl pseudovirus assay in experiment [9] amounted to 0.606 nM; in experiment [10], 0.0473 nM; in [11] it was 2.14 nM; in [12], 0.734 nM; in experiment [13], 0.0324 nM.

In experiment [1], “monomeric griffithsin mGRFT (1GS-S) (from UniProt P84801 16-121) (natural protein)” had a Kd of 112 nM and a dH of -35.5 kcal/mol. The same substance gave an Anti-HIV EC50: concentration at which 50% of CEM-SS cells are protected from the cytopathic effects of HIV-1RF infection (XTT assay) in experiment [2] of 119 nM.

As for “4mGRFT, tandem repeat of four mGRFT (1GS-S) domains joined by Gly-Thr-Gly linkers (designed binder)”, in [2], the Anti-HIV EC50: concentration at which 50% of CEM-SS cells are protected from the cytopathic effects of HIV-1RF infection (XTT assay) was found to be 0.0012 nM. In addition, the IC50 of neutralisation, single cycle Tzm-bl pseudovirus assay was found to be 0.273 nM in experiment [3]; 0.185 nM in [4]; 0.3 nM in [5]; 0.287 nM in experiment [6]; 0.276 nM in [7]; 0.232 nM in experiment [8]. The IC50 of neutralisation, single cycle Tzm-bl pseudovirus assay in [9] was 0.0934 nM; in [10], 0.17 nM; in [11], 0.164 nM; in [12], 0.273 nM; in experiment [13], 0.0887 nM.

As to “3mGRFT, tandem repeat of three mGRFT (1GS-S) domains joined by Gly-Thr-Gly linkers (designed binder)”, the Kd in experiment [1] worked out at 3 nM. Besides, the dH in experiment [1] was -74.4 kcal/mol. Also, the Anti-HIV EC50: concentration at which 50% of CEM-SS cells are protected from the cytopathic effects of HIV-1RF infection (XTT assay) in [2] was 0.001 nM. For the same substance, the IC50 of neutralisation, single cycle Tzm-bl pseudovirus assay in experiment [3] stood at 0.331 nM; in [4], 0.27 nM; in experiment [5], 0.308 nM; in experiment [6], 0.325 nM; in experiment [7] it was 0.432 nM; in [8] it was 0.326 nM. Besides, the IC50 of neutralisation, single cycle Tzm-bl pseudovirus assay in experiment [9] is 0.124 nM; in [10], 0.223 nM; in experiment [11] it was 0.181 nM; in experiment [12], 0.412 nM; in experiment [13], 0.0794 nM.
